PMC2926597

Molecular target: T1, KSRP KH23 (KH2-KH3 di-domain) (Homo sapiens, UniProt Q92945 233-418)
T1 sequence: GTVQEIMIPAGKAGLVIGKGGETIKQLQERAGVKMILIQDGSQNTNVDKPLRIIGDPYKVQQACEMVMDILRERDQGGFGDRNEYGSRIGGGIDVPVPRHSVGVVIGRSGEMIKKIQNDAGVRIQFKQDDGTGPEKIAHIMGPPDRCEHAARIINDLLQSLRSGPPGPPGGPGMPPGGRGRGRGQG
Test: CD titration

UAUUUAUUAUUU (ssRNA) [TNFa ARE AU-12mer]
Kd: 1000 ± 100 nM
